Assays:
Experiment in all cases: ELISA, immobilised recombinant L7/L12 (10 ng/mL), antibody 10 ug/mL
[1] = target: レジオネラ・ニューモフィラ(LP)のリボソームタンパク質L7/L12 (レジオネラ・ニューモフィラ (Legionella pneumophila))
[2] = target: リステリア・モノサイトゲネス(LM)のリボソームタンパク質L7/L12 (リステリア・モノサイトゲネス (Listeria monocytogenes))
[3] = target: サルモネラ菌(SE)のリボソームタンパク質L7/L12 (サルモネラ菌 (Salmonella enteritidis))
[4] = target: 肺炎クラミジア(CP)のリボソームタンパク質L7/L12 (肺炎クラミジア (Chlamydia pneumoniae))
[5] = target: 淋菌(NG)のリボソームタンパク質L7/L12 (淋菌 (Neisseria gonorrhoeae))
[6] = target: 百日咳菌(BP)のリボソームタンパク質L7/L12 (百日咳菌 (Bordetella pertussis))
[7] = target: 肺炎マイコプラズマ(MP)のリボソームタンパク質L7/L12 (肺炎マイコプラズマ (Mycoplasma pneumoniae))
[8] = target: 肺炎球菌(SP)のリボソームタンパク質L7/L12 (肺炎球菌 (Streptococcus pneumoniae))
[9] = target: 緑膿菌(PA)のリボソームタンパク質L7/L12 (緑膿菌 (Pseudomonas aeruginosa))
[10] = target: 髄膜炎菌(NM)のリボソームタンパク質L7/L12 (髄膜炎菌 (Neisseria meningitidis))
[11] = target: 黄色ブドウ球菌(SA)のリボソームタンパク質L7/L12 (黄色ブドウ球菌 (Staphylococcus aureus))
[12] = target: カンピロバクター・ジェジュニ(CJ)のリボソームタンパク質L7/L12 (カンピロバクター・ジェジュニ (Campylobacter jejuni))
[13] = target: クレブシエラ・ニューモニエ(KP)のリボソームタンパク質L7/L12 (クレブシエラ・ニューモニエ (Klebsiella pneumoniae))
[14] = target: 溶連菌(SPY)のリボソームタンパク質L7/L12 (溶連菌 (Streptococcus pyogenes))
[15] = target: クラミジア・トラコマチス(CT)のリボソームタンパク質L7/L12 (クラミジア・トラコマチス (Chlamydia trachomatis))
[16] = target: モラキセラ菌(MC)のリボソームタンパク質L7/L12 (モラキセラ菌 (Moraxella catarrhalis))

Measured: absorbance at 450 nm (absorbance (450 nm))

B1: 汎用性抗体C(CP141A190.1) (antibody, V domains shown)
VH: QVQLQQPGAELVKPGASVKLSCKTSGYNFTSNWIHWVKQRPGQGLEWIGEINPSNGRANYNEKFKNKATLTVDKSSSTAFMHLSSLTSEDSAVYFCSRGDFDEGFTYWGQGTLVTVSA
VL: QIVLTQSPAIMSASLGERVTMTCTASSNVNSDYLHWYQQKPGSSPRLWIYTTSNLASGVPTRFSGNGSGTSYSLTISSMEAEDAATYYCHQYHRSPRTFGGGTKLEIK
> 0.3: [1]

B2: 汎用性抗体B(LP54A3) (antibody, V domains shown)
VH: EVQLQQSGAELVKPGASVRLSCSASGFNIKDTYMHWMRQRPEQGLEWIGRIDPANGNAKYDPKFQVKATITADTSSNTASLQFSSLTSEDTAVYFCASESLDDMYYFDYWGQGTTLTVSS
VL: DIVMTQSQKFMSTSVGDRVSVTCKASQNVGVNVAWYQQKPGQSPKALIYSASYRYSGVPDRFTGSGSGTDFTLTISNVQSEDLAEYFCQQYHSYLYTFGGGTKLEIK
> 0.3: [2] | [3] | [1] | [4] | [5] | [6] | [7] | [8] | [9] | [10] | [11] | [12] | [13] | [14] | [15] | [16]

B3: 汎用性抗体A(PA51B2) (antibody, V domains shown)
VH: QVQLQQPGSVLVRPGASVKLSCKPSGYTFTGSWMHWTKQRPGQGLEWIGEIHPYSGNTNYNEKFRVKATLTVDTSSSTTYVDLSSLTSDDSAVYYCASGDFDAGFTYWGQGTLVTVSA
VL: DIVLTQSPASLAVSLGRRATISCKASQSVDYDGDSYMNWYQQKPGQPPKLLIYVASNLESGIPARFSGSGSGTDFTLNIHPVEEEDAATYYCQQTNEDPFTFGAGTKLELK
> 0.3: [1]

— JP2022109630A
